± gives the standard error. For part of these data: This sample holds only a part of the variants without activity.
B1: glmS ribozyme (parent)
chain: AUAAAAGCGCCAGAACUACAGAAAUGUAGUUGACGAGGAGGAGGUUUAUCGAAUUUUCGGCGGAUGCCUCCAAA

Key:
Details in all cases: with glucosamine-6-phosphate
glucosamine-6-phosphate [1] = variants of: B1; assay: kcat; higher = faster cleavage; RNA array
How it was run: (§1)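 On sequenced MiSeq chips, barcoded ribozyme variants were made in situ by E. coli RNA polymerase and followed at 37 °C through a hybridised Cy3 probe. Glucosamine-6-phosphate was flowed in at 40 μM to 10 mM in HEPES/KCl/Mg(OAc)2 buffer. Exponential fits to normalised per-tile medians gave kobs, and weighted Michaelis–Menten fits gave kcat and KM.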

glucosamine-6-phosphate [2] = variants of: B1; assay: self-cleavage kobs at 40 uM GlcN6P; higher = faster cleavage; RNA array
How it was run: as §1

glucosamine-6-phosphate [3] = variants of: B1; assay: self-cleavage kobs at 640 uM GlcN6P; higher = faster cleavage; RNA array
How it was run: as §1

glucosamine-6-phosphate [4] = variants of: B1; assay: self-cleavage kobs at 10000 uM GlcN6P; higher = faster cleavage; RNA array
How it was run: as §1

glucosamine-6-phosphate [5] = variants of: B1; assay: KM; higher = weaker cofactor use; RNA array
How it was run: as §1

glucosamine-6-phosphate [6] = variants of: B1; assay: self-cleavage kobs at 2500 uM GlcN6P; higher = faster cleavage; RNA array
How it was run: as §1

glucosamine-6-phosphate [7] = variants of: B1; assay: self-cleavage kobs at 160 uM GlcN6P; higher = faster cleavage; RNA array
How it was run: as §1

Variant | kcat (glucosamine-6-phosphate [1]) [s⁻¹] | self-cleavage kobs at 40 uM GlcN6P (glucosamine-6-phosphate [2]) [s⁻¹] | self-cleavage kobs at 640 uM GlcN6P (glucosamine-6-phosphate [3]) [s⁻¹] | self-cleavage kobs at 10000 uM GlcN6P (glucosamine-6-phosphate [4]) [s⁻¹] | KM (glucosamine-6-phosphate [5]) [µM] | self-cleavage kobs at 2500 uM GlcN6P (glucosamine-6-phosphate [6]) [s⁻¹] | self-cleavage kobs at 160 uM GlcN6P (glucosamine-6-phosphate [7]) [s⁻¹]
A36C U46C | < 1e-05 | < 1e-05 | < 1e-05 | < 1e-05 |  |  | 
A15U U57G | 1.7e-05 ± 6.8e-06 |  |  |  |  |  | 
G13C U31G | 0.000196 ± 4.5e-06 |  | 5.79e-05 ± 1.2e-05 | 0.00017 ± 2.2e-05 | 1560 ± 90 | 0.000119 ± 1.8e-05 | 
C11A U31C | 7.57e-05 ± 7.2e-06 |  |  | 6.39e-05 ± 1.1e-05 | 1620 ± 610 | 5.09e-05 ± 1.4e-05 | 
G38U C70A | 1.31e-05 ± 3.3e-06 |  |  |  |  |  | 
A53C | 0.0162 ± 0.0036 | 0.000261 ± 5.6e-06 | 0.00273 ± 6.9e-05 | 0.0126 ± 0.00041 | 2870 ± 790 | 0.00834 ± 0.0003 | 0.000713 ± 2.4e-05
G37A G40C | 0.000207 ± 4.1e-05 |  | 4.22e-05 ± 1.3e-05 | 0.000157 ± 3.4e-05 | 2180 ± 880 | 0.00015 ± 3.5e-05 | 
C16U C50G A53U U55A | 3.66e-05 ± 1e-05 |  | 4.65e-05 ± 2.2e-05 |  |  |  | 
U46G C68U | 0.00128 ± 0.00018 | 5.92e-05 ± 9.5e-06 | 0.000378 ± 5.2e-05 | 0.00116 ± 0.00011 | 1170 ± 300 | 0.00102 ± 0.00018 | 0.000148 ± 2.3e-05
C16G C61U C67U | < 1e-05 | < 1e-05 |  | < 1e-05 |  |  | < 1e-05
A52U U65A U69C | 1.13e-05 ± 8.7e-07 |  |  |  | 1400 ± 420 |  | 
C10U U69C | 2.21e-05 ± 5.7e-06 |  |  |  |  |  | 
C50G C61G | 0.000119 ± 1.7e-05 | 8.54e-05 ± 1.1e-05 | 0.000115 ± 1.6e-05 | 9.9e-05 ± 1e-05 |  | 0.000161 ± 2e-05 | 0.000156 ± 1.9e-05
G37C | 5.32e-05 ± 1.7e-06 |  | 1.88e-05 ± 1.5e-06 | 4.71e-05 ± 8.5e-07 | 1380 ± 210 | 3.22e-05 ± 1.5e-06 | 
U65C C68A | < 1e-05 | < 1e-05 |  |  |  |  | 
A14U U30C | 2.9e-05 ± 1.4e-05 |  |  |  |  | 4.54e-05 ± 1.8e-05 | < 1e-05
A42U U47G | 3.95e-05 ± 1.3e-06 | < 1e-05 |  | 2.38e-05 ± 9e-06 | 6570 ± 510 |  | 
G32U U56G | 0.00104 ± 0.00031 |  | 8.33e-05 ± 1.2e-05 | 0.000633 ± 6.8e-05 | 6410 ± 2800 | 0.000317 ± 5e-05 | 5.05e-05 ± 1.1e-05
A42C U57G | < 1e-05 | < 1e-05 |  |  |  |  | < 1e-05

Variant | kcat (glucosamine-6-phosphate [1]) [s⁻¹] | self-cleavage kobs at 40 uM GlcN6P (glucosamine-6-phosphate [2]) [s⁻¹] | self-cleavage kobs at 640 uM GlcN6P (glucosamine-6-phosphate [3]) [s⁻¹] | self-cleavage kobs at 10000 uM GlcN6P (glucosamine-6-phosphate [4]) [s⁻¹] | KM (glucosamine-6-phosphate [5]) [µM] | self-cleavage kobs at 2500 uM GlcN6P (glucosamine-6-phosphate [6]) [s⁻¹] | self-cleavage kobs at 160 uM GlcN6P (glucosamine-6-phosphate [7]) [s⁻¹]
A42U C70U | 0.000154 ± 2e-05 |  | 3.64e-05 ± 7.2e-06 | 0.000126 ± 1.2e-05 | 1640 ± 560 | 0.000112 ± 1.2e-05 | 
C50U U57A | 1.46e-05 ± 7e-07 | < 1e-05 |  | < 1e-05 | 397 ± 84 |  | 
C58G A64G | 0.000129 ± 2.7e-05 |  | 6.72e-05 ± 2.7e-05 | 0.000115 ± 1.7e-05 |  | 6.74e-05 ± 1.2e-05 | 
G43U C67U | 5.98e-05 ± 3.8e-06 |  |  | 5.46e-05 ± 7.3e-06 | 699 ± 280 | 5.2e-05 ± 1.1e-05 | 
G37U C50A | < 1e-05 |  | < 1e-05 | < 1e-05 |  |  | 
G44U U54G | 0.000306 ± 2.6e-05 |  | 0.000127 ± 2.2e-05 | 0.00027 ± 5.1e-05 | 986 ± 200 | 0.000226 ± 4.8e-05 | 
A33G G63C | < 1e-05 | < 1e-05 | < 1e-05 |  |  |  | 
G37U A53G | 1.16e-05 ± 3.4e-06 |  |  |  |  |  | 
C16U G41U | 0.00145 ± 0.00031 | 9.78e-05 ± 8.3e-06 | 0.000727 ± 0.00014 | 0.00126 ± 0.00027 | 599 ± 170 | 0.00155 ± 0.00029 | 0.000229 ± 4.6e-05
G66U | 0.00275 ± 0.00056 | 5.79e-05 ± 1.2e-06 | 0.00057 ± 1.2e-05 | 0.00225 ± 6.3e-05 | 2210 ± 580 | 0.00179 ± 6.8e-05 | 0.000159 ± 5.1e-06
G32A G41U A52U | < 1e-05 | < 1e-05 | < 1e-05 |  | 1010 ± 120 |  | 
A15U C70A | 6.56e-05 ± 1e-05 |  | 3.49e-05 ± 1.2e-05 | 4.87e-05 ± 1.1e-05 |  | 6.73e-05 ± 7e-06 | 
A14G U47A | 0.00972 ± 0.0015 | 0.00113 ± 0.00022 | 0.00942 ± 0.0021 | 0.00772 ± 0.0019 | 275 ± 78 | 0.00943 ± 0.002 | 0.0041 ± 0.0011
G29U G37U | < 1e-05 |  |  | < 1e-05 |  |  | 
A36G C70A | 1.58e-05 ± 4.3e-06 |  |  |  |  |  | 
G43U U56A | 1.76e-05 ± 3.4e-06 | < 1e-05 |  |  |  |  | 
A52G U65C | 3.32e-05 ± 1.6e-06 |  |  |  | 248 ± 83 |  | 
A53C U56A | 0.00313 ± 0.00063 | 4.81e-05 ± 7e-06 | 0.000467 ± 9.1e-05 | 0.00243 ± 0.00038 | 2700 ± 730 | 0.00171 ± 0.00027 | 0.000205 ± 3.7e-05
